In assay [1] the target is Mamu-E*02:04, single transfectant (rhesus macaque). As to the kind of experiment: cell-based or functional assay.
Assay [2] deals with Mamu-E*02:20, single transfectant (rhesus macaque). In words: cell-based or functional assay.

Turning to SIVgag259-267 optimal 9mer peptide, the peptide dose pulsed on the transfectant that triggers CD8+ T cells (ICS) in assay [1] and in assay [2] was < 1 nM in each case.
Regarding SIVgag276-284 optimal 9mer peptide, the peptide dose pulsed on the transfectant that triggers CD8+ T cells (ICS) in assay [1] and in assay [2] was < 1 nM throughout.
In the case of SIVgag476-484 optimal 9mer peptide, the peptide dose pulsed on the transfectant that triggers CD8+ T cells (ICS) in assay [1] and in assay [2] was < 1 nM in each case.
Take SIVgag482-490 optimal 9mer peptide: the peptide dose pulsed on the transfectant that triggers CD8+ T cells (ICS) in assay [1] and in assay [2] was < 1 nM in each case.

The values above are taken from US20180298404A1.
